From US20210347873A1 (SHANGHAI PHARMAEXPLORER, published 2021)

T1: human APRIL protein (human, UniProt O75888 105-250, limits assumed)
T1 construct: Bought protein; also called recombinant APRIL protein
T1 sequence (looked up): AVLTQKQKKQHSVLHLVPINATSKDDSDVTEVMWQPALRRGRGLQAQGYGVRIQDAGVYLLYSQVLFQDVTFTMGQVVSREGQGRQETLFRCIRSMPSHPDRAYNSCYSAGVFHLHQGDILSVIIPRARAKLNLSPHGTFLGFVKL


Key:
human APRIL protein [1] = biological target: T1, human APRIL protein; experiment: ELISA, coated APRIL; antibody 0.534 nM
Experimental: (§1) To test whether the BLyS antibody cross-reacted with human APRIL protein, APRIL protein (purchased from R & D Systems) was first diluted to a final concentration of 1.0 μg/mL with PBS, and then 50 μL of which per well was aliquoted into a 96-well ELISA plate, and the plate was subsequently sealed with plastic film and incubated at 4° C. overnight. On the next day the plate was rinsed four times with the plate washing buffer [PBS buffer containing 0.0500 (v/v) Tween20] and a blocking solution [PBS buffer containing 0.05 (v/v) Tween20 and 1 (w/w) BSA] was added, then the protein was blocked at 37° C. for 2 hours. The blocking solution was removed and 100 μL per well of the lead antibodies prepared in Embodiment 1 and 2 were added in. After incubation for 1 hour at 37° C., the plate was rinsed four times with the plate washing buffer [PBS buffer containing 0.05 (v/v) Tween20]. HRP-labeled (horseradish peroxidase) secondary antibody (purchased from Sigma) was added in and incubated at 37° C. for 1 hour. The plate was then rinsed four times with the plate washing buffer [PBS buffer containing 0.050 (v/v) Tween20]. 100 μL of TMB substrate was aliquoted into each well and after incubation at room temperature for 5 minutes, 100 μL of stop solution (1.0 N HCl) was aliquoted into each well. A₄₅₀ₙₘ values were read via an ELISA plate reader (SpectraMax M5e purchased from Molecular Devices) and the results were shown in FIGS. 6A-6B and Table 11. […] As used herein, the IgG control is human IgG and the data in the table is GD number at 450 nm.

human APRIL protein [2] = biological target: T1, human APRIL protein; experiment: ELISA, coated APRIL; antibody 2.67 nM
Experimental: as §1

human APRIL protein [3] = biological target: T1, human APRIL protein; experiment: ELISA, coated APRIL; antibody 0.00427 nM
Experimental: as §1

human APRIL protein [4] = biological target: T1, human APRIL protein; experiment: ELISA, coated APRIL; antibody 0.107 nM
Experimental: as §1

human APRIL protein [5] = biological target: T1, human APRIL protein; experiment: ELISA, coated APRIL; antibody 13.3 nM
Experimental: as §1

human APRIL protein [6] = biological target: T1, human APRIL protein; experiment: ELISA, coated APRIL; antibody 66.7 nM
Experimental: as §1

human APRIL protein [7] = biological target: T1, human APRIL protein; experiment: ELISA, coated APRIL; antibody 0.0213 nM
Experimental: as §1

human APRIL protein [8] = biological target: T1, human APRIL protein; experiment: ELISA, coated APRIL; antibody 0 nM (blank)
Experimental: as §1

[9] = biological target: His-tagged extracellular domain of human BLyS protein (hBLyS-ECD), Ala134-Leu285 (human, UniProt Q9Y275 134-285); experiment: cell-based or functional assay

Binder	OD450 nm (human APRIL protein [1])	OD450 nm (human APRIL protein [2])	OD450 nm (human APRIL protein [3])	OD450 nm (human APRIL protein [4])	OD450 nm (human APRIL protein [5])	OD450 nm (human APRIL protein [6])	OD450 nm (human APRIL protein [7])	OD450 nm (human APRIL protein [8])	mouse B lymphocyte proliferation stimulated by hBLyS-ECD (viable cell signal) at 0 nM antibody [9]	mouse B lymphocyte proliferation stimulated by hBLyS-ECD (viable cell signal) at 0.000256 nM antibody [9]	mouse B lymphocyte proliferation stimulated by hBLyS-ECD (viable cell signal) at 0.00128 nM antibody [9]	mouse B lymphocyte proliferation stimulated by hBLyS-ECD (viable cell signal) at 0.0064 nM antibody [9]	mouse B lymphocyte proliferation stimulated by hBLyS-ECD (viable cell signal) at 0.032 nM antibody [9]	mouse B lymphocyte proliferation stimulated by hBLyS-ECD (viable cell signal) at 0.16 nM antibody [9]	mouse B lymphocyte proliferation stimulated by hBLyS-ECD (viable cell signal) at 0.8 nM antibody [9]	mouse B lymphocyte proliferation stimulated by hBLyS-ECD (viable cell signal) at 4 nM antibody [9]	mouse B lymphocyte proliferation stimulated by hBLyS-ECD (viable cell signal) at 20 nM antibody [9]	mouse B lymphocyte proliferation stimulated by hBLyS-ECD (viable cell signal) at 100 nM antibody [9]
8E7D9C7F5 (antibody, V domains shown) VH: QVQLQQSGVELARPGASVKLSCKASGYTFTSYGISWVKQRTGQALEWIGEIYPRSGNTYYNEKFKGKATLTADKSSSTAYMELRSLTSEDSAVYFCARSGPITTLVATDYGMDYWGQGTSVTVSS VL: DIVLTQSPASLAVSLGQRATISCRASKSVSTSSYSYMHWYQQKPGQPPKLLIKFASNLESGVPARFSGSGSGTDFTLNIHPVEEEDAATYYCQHSREFPYTFGGGTKLEIK	0.0599	0.0703	0.0571	0.0558	0.116	0.464	0.0565	0.0551										
20D1B6E9E5 (antibody, V domains shown) VH: EVQLQQSVAELVRPGASVKLSCTASDFNIKNTYIHWVKQRPEQGLEWIGRIDPVNGNTKYAPKFQDKATIIVDTYSNTAYLQLSSLASEDTAVYYCARWPITTIVATDWYFDVWGTGTTVTVSS VL: DVLMTQTQLALPVRLGEQASISCRSSQSIVNSNGNTYLEWYLQKPGQSPKLLIYKVSNRFSGVPDRFSGSGSGTDFTLKISRVEAEDLGVYYCFQGSHVPWTFGGGTKLEIK	0.0611	0.0775	0.0535	0.0543	0.257	0.942	0.0546	0.055										
humanized BLyS antibody h8E7D9C7F5-1 (antibody, human IgG1, V domains shown) VH: EVQLVQSGAEVKKPGASVKVSCKASGYTFTSYGISWVRQAPGQGLEWMGEIYPRSGNTYYNEKFKGRVTMTTDTSTSTAYMELRSLRSDDTAVYYCARSGPITTLVATDYGMDYWGQGTTVTVSS VL: DIVMTQSPDSLAVSLGERATINCRASKSVSTSSYSYMHWYQQKPGQPPKLLIKFASNLESGVPDRFSGSGSGTDFTLTISSLQAEDVAVYYCQHSREFPYTFGGGTKVEIK									3480 OD450 nm (as headed)	3000 OD450 nm (as headed)	3120 OD450 nm (as headed)	3200 OD450 nm (as headed)	2970 OD450 nm (as headed)	2730 OD450 nm (as headed)	951 OD450 nm (as headed)	209 OD450 nm (as headed)	152 OD450 nm (as headed)	131 OD450 nm (as headed)
mouse-human chimeric BLyS antibody c8E7D9C7F5 (antibody, human IgG1, V domains shown) VH: QVQLQQSGVELARPGASVKLSCKASGYTFTSYGISWVKQRTGQALEWIGEIYPRSGNTYYNEKFKGKATLTADKSSSTAYMELRSLTSEDSAVYFCARSGPITTLVATDYGMDYWGQGTSVTVSS VL: DIVLTQSPASLAVSLGQRATISCRASKSVSTSSYSYMHWYQQKPGQPPKLLIKFASNLESGVPARFSGSGSGTDFTLNIHPVEEEDAATYYCQHSREFPYTFGGGTKLEIK									3640 OD450 nm (as headed)	3310 OD450 nm (as headed)	3360 OD450 nm (as headed)	3020 OD450 nm (as headed)	2950 OD450 nm (as headed)	3200 OD450 nm (as headed)	408 OD450 nm (as headed)	187 OD450 nm (as headed)	187 OD450 nm (as headed)	116 OD450 nm (as headed)
